Results taken from patent US20180305431A1 (Novo Nordisk, published 2018).

Experiments:
[1] = target: insulin receptor on primary rat adipocytes (rat) (UniProt P15127); assay: cell-based or functional assay
[2] = target: membrane-associated human IR-B (plasma membranes of BHK cells stably transfected with the human IR-B insert) (human) (UniProt P06213); assay: SPA competition vs [125I-A14Y]-human insulin, membrane hIR-B, 0.1% HSA
[3] = target: T1, solubilised human IR-A (semipurified by wheat germ agglutinin chromatography from baby hamster kidney (BHK) … (human, UniProt P06213-2 28-1370)); assay: SPA competition vs [125I-A14Y]-human insulin, solubilised hIR-A, 0% HSA
T1 construct: mature; Detergent-solubilised holoreceptor captured by anti-IR mouse antibody 83-7 on SPA beads; the precursor is processed into alpha and beta chains; also called hIRA; human insulin receptor (IR), A isoform

[4] = target: T1, solubilised human IR-A (semipurified by …); assay: SPA competition vs [125I-A14Y]-human insulin, solubilised hIR-A, 1.5% HSA
[5] = target: T2, membrane-associated human IGF-1R (plasma membranes of BHK cells stably transfected with the human IGF-IR … (human, UniProt P08069 31-1367)); assay: SPA competition vs [125I-Tyr31]-human IGF-1, membrane hIGF-1R, 0.1% HSA
T2 construct: whole, on cells; Receptor in purified plasma membranes, not on intact cells; also called hIGF1R; insulin-like growth factor 1 receptor
Description: The relative binding affinity for either of the membrane-associated human IR-A, IR-B or IGF-1R is determined by competition binding in a SPA setup. IR assays are performed in duplicate in 96-well OptiPlates (Perkin-Elmer Life Sciences). […] Assays are terminated by centrifugation of the plate at 2000 rpm for 2 minutes and bound radioactivity quantified by counting on a TopCount NXT (Perkin-Elmer Life Sciences).
IGF-1R assays are conducted essentially as for the IR binding assays except that membrane-associated IGF-1R and 50 pM [¹²5-Tyr31]-human IGF-1 were employed.

[6] = target: membrane-associated human IR-A (plasma membranes of BHK cells stably transfected with the human IR-A insert) (human) (UniProt P06213); assay: SPA competition vs [125I-A14Y]-human insulin, membrane hIR-A, 0.1% HSA

insulin receptor on primary rat adipocytes (rat), sequence (P15127 27-1383): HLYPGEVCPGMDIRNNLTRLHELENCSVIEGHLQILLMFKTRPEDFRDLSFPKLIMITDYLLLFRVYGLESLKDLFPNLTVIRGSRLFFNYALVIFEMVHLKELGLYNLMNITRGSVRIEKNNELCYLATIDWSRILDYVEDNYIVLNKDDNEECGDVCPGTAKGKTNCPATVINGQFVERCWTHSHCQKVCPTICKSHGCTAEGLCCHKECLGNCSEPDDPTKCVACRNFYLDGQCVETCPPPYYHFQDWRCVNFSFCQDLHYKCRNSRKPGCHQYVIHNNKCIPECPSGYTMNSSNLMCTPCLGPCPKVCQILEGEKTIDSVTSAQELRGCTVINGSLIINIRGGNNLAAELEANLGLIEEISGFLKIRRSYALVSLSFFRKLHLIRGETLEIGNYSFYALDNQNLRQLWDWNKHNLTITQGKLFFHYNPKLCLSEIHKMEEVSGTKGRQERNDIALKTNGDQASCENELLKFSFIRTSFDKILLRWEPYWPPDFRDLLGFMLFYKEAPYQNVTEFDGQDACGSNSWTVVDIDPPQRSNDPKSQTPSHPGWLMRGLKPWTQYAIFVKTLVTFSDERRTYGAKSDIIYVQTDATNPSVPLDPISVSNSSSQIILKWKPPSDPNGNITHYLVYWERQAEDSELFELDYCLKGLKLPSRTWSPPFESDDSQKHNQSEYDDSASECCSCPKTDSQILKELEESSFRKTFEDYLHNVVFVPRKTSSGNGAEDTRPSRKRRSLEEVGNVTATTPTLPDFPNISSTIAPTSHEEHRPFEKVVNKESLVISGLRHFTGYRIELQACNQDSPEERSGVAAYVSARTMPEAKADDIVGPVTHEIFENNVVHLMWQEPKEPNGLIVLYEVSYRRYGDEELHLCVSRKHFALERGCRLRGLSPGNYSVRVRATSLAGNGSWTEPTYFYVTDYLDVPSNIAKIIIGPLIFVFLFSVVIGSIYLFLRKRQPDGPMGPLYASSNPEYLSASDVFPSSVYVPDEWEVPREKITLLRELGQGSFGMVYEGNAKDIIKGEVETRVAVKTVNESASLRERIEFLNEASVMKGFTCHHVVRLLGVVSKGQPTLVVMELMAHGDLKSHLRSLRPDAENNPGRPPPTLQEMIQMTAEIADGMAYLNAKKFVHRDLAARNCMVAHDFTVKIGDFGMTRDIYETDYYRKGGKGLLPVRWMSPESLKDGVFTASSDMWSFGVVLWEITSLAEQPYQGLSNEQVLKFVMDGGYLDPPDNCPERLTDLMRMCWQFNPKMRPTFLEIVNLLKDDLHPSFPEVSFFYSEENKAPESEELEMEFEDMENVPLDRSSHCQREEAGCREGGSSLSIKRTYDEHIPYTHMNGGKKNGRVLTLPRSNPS
T2 sequence (P08069 31-1367): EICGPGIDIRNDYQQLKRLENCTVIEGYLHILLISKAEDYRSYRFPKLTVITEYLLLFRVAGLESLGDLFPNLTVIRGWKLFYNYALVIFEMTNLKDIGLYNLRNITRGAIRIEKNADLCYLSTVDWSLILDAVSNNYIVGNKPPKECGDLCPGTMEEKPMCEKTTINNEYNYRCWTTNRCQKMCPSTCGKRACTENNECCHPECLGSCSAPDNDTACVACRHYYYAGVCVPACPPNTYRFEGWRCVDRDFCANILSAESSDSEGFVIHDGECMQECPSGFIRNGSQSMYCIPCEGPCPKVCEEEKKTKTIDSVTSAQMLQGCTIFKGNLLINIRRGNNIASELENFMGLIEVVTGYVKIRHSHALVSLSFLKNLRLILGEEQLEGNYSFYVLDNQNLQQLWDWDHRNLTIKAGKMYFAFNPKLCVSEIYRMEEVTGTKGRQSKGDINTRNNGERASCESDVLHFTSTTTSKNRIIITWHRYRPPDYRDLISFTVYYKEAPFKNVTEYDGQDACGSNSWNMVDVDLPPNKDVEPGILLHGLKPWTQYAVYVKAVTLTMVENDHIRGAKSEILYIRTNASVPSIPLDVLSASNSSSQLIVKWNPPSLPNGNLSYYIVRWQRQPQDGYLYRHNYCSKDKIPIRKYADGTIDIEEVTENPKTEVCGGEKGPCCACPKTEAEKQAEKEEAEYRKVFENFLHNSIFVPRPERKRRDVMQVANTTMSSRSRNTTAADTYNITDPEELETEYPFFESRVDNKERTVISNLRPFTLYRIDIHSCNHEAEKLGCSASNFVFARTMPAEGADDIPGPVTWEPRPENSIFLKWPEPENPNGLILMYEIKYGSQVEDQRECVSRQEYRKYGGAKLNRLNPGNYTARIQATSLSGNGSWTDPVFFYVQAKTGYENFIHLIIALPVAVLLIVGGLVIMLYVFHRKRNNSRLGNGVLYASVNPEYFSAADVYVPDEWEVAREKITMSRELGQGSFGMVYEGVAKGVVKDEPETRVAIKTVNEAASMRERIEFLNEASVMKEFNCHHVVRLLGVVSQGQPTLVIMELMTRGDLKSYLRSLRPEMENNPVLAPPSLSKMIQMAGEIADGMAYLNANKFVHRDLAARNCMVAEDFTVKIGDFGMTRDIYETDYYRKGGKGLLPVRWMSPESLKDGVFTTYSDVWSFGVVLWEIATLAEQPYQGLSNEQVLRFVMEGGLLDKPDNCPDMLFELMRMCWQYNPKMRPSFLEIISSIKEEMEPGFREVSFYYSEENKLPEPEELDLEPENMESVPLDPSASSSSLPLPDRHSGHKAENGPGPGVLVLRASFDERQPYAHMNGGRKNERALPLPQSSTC
membrane-associated human IR-B (plasma membranes of BHK cells stably transfected with the human IR-B insert) (human), sequence (P06213 28-1382): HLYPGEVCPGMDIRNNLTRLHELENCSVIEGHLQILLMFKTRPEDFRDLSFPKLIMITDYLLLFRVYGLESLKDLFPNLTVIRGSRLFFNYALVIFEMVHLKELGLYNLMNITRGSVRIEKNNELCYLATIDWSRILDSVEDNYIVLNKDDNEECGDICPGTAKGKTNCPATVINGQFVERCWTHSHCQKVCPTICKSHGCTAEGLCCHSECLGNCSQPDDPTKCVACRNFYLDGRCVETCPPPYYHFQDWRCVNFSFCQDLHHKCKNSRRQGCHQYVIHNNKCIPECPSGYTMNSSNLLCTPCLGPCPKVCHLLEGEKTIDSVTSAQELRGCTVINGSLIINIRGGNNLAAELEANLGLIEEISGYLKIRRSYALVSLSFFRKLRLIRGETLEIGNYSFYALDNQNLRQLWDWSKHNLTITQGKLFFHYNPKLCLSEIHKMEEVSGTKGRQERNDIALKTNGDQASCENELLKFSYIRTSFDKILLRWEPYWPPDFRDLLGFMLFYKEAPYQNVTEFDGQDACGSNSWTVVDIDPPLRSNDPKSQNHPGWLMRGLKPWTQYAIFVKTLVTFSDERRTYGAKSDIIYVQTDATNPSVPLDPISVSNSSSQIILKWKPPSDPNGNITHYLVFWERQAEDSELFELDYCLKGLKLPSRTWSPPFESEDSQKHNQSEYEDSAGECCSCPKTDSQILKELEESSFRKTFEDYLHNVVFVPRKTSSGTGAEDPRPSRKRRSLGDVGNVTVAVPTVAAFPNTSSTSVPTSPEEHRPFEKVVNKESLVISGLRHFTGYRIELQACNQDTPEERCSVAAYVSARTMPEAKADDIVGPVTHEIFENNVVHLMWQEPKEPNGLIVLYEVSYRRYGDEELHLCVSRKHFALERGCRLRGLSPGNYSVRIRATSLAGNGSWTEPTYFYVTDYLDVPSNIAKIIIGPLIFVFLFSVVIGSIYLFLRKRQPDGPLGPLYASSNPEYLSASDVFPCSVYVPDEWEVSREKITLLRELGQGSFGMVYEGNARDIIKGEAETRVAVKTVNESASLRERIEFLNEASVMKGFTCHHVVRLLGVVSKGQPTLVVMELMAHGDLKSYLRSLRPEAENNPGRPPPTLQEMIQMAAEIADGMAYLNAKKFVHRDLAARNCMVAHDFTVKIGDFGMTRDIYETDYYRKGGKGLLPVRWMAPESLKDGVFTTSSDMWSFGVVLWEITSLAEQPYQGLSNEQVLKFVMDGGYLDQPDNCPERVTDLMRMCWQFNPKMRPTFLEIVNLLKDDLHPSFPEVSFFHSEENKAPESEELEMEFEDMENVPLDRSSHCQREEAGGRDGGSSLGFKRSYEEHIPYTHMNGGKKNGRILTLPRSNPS

Row | Binder | Lipogenesis 1% HSA (% rel to HI) [1] | relative binding affinity (% rel to HI) [2] | relative binding affinity (% rel to HI) [3] | relative binding affinity (% rel to HI) [4] | relative binding affinity (% rel to HI) [5] | relative binding affinity (% rel to HI) [6]
1 | A14E, A22K(N(eps)hexadecanedioyl-gGlu-2xOEG), B3E, B27E, B28E, B29R, desB30 human insulin (ligand, not fully specified; Lys A22 acylated on N(eps) with hexadecanedioyl-gGlu-2xOEG, Two-chain acylated insulin analogue; also called Ex. No. 26) chain 1: GIVEQCCTSICSLEQLENYCNK chain 2: FVEQHLCGSHLVEALYLVCGERGFFYEER | 2.6 % rel to HI | 28.7 % rel to HI | 63.7 % rel to HI | 7.4 % rel to HI | 28.7 % rel to HI | 19.3 % rel to HI
2 | A14E, A22K(N(eps)tetradecanedioyl-4xgGlu), B3E, B27E, B28E, B29R, desB30 human insulin (ligand, not fully specified; Lys A22 acylated on N(eps) with tetradecanedioyl-4xgGlu, Two-chain acylated insulin analogue; also called Ex. No. 4) chain 1: GIVEQCCTSICSLEQLENYCNK chain 2: FVEQHLCGSHLVEALYLVCGERGFFYEER | 15.4 % rel to HI | 56.6 % rel to HI | 47.4 % rel to HI | 44.9 % rel to HI | 28.6 % rel to HI | 36.6 % rel to HI
3 | A14E, A22K(N(eps)tetradecanedioyl-4xgGlu), B3Q, B27E, B28E, B29R, desB30 human insulin (ligand, not fully specified; Lys A22 acylated on N(eps) with tetradecanedioyl-4xgGlu, also called Ex. No. 9) chain 1: GIVEQCCTSICSLEQLENYCNK chain 2: FVQQHLCGSHLVEALYLVCGERGFFYEER | 30.1 % rel to HI | 68.7 % rel to HI | 83 % rel to HI | 70.2 % rel to HI | 29.5 % rel to HI | 36.8 % rel to HI
4 | A14E, A22K(N(eps)tetradecanedioyl-4xgGlu), B3Q, B28D, B29R, desB30 human insulin (ligand, not fully specified; Lys A22 acylated on N(eps) with tetradecanedioyl-4xgGlu, also called Ex. No. 8) chain 1: GIVEQCCTSICSLEQLENYCNK chain 2: FVQQHLCGSHLVEALYLVCGERGFFYTDR | 17.2 % rel to HI | 59.1 % rel to HI | 95.6 % rel to HI | 64.9 % rel to HI | 42 % rel to HI | 34.3 % rel to HI
5 | A14E, A22K(N(eps)tetradecanedioyl-gGlu-2xOEG), B3E, B27E, B28E, B29R, desB30 human insulin (ligand, not fully specified; Lys A22 acylated on N(eps) with tetradecanedioyl-gGlu-2xOEG, Two-chain acylated insulin analogue; also called Ex. No. 2) chain 1: GIVEQCCTSICSLEQLENYCNK chain 2: FVEQHLCGSHLVEALYLVCGERGFFYEER | 14.2 % rel to HI | 70.2 % rel to HI | 60.4 % rel to HI | 38.9 % rel to HI | 36.6 % rel to HI | 50.1 % rel to HI
6 | A8R, A22K(N(eps)tetradecanedioyl-4xgGlu), B3E, B26E, B27E, B28R, desB29, desB30 human insulin (ligand, not fully specified; Lys A22 acylated on N(eps) with tetradecanedioyl-4xgGlu, Two-chain acylated insulin analogue; also called Ex. No. 19) chain 1: GIVEQCCRSICSLYQLENYCNK chain 2: FVEQHLCGSHLVEALYLVCGERGFFEER | 80.3 % rel to HI | 155 % rel to HI | 260 % rel to HI | 188 % rel to HI | 22.6 % rel to HI | 88.8 % rel to HI
7 | A8R, A22K(N(eps)tetradecanedioyl-4xgGlu), B3E, B26E, B27P, B28R, desB29, desB30 human insulin (ligand, not fully specified; Lys A22 acylated on N(eps) with tetradecanedioyl-4xgGlu, also called Ex. No. 16) chain 1: GIVEQCCRSICSLYQLENYCNK chain 2: FVEQHLCGSHLVEALYLVCGERGFFEPR | 130 % rel to HI | 168 % rel to HI | 317 % rel to HI | 229 % rel to HI | 61.8 % rel to HI | 113 % rel to HI
8 | A8R, A22K(N(eps)tetradecanedioyl-4xgGlu), B3E, B27E, B28R, desB29, desB30 human insulin (ligand, not fully specified; Lys A22 acylated on N(eps) with tetradecanedioyl-4xgGlu, Two-chain acylated insulin analogue; also called Ex. No. 17) chain 1: GIVEQCCRSICSLYQLENYCNK chain 2: FVEQHLCGSHLVEALYLVCGERGFFYER | 70.7 % rel to HI | 130 % rel to HI | 243 % rel to HI | 163 % rel to HI | 32.9 % rel to HI | 85.2 % rel to HI
